# Experimental data taken from the supplement of paper PMC10724198.
# ± gives the standard deviation of the averaged measurements.
# System: Saccharomyces cerevisiae
# Experiment: protein stability index of tFT-peptide fusion (C-terminal peptide) (PSI (0-1 scale)); higher = more stable (slower turnover)
# Conditions: genetic background: wild type; temperature: 30 C
# 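Note: PSI is a weighted mean of sequencing reads over stability bins, variants kept only with over 10 reads, mCherry proximal and sfGFP distal, peptide attached via GGGS linker.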
row,Sequence,protein stability index
1,RSNLGLNLVLAI,0.591 ± 0.031
2,RSNNKFAKPIQY,0.663 ± 0.11
3,RSPHLPTARSSQ,0.723 ± 0.018
4,RSPLPHPPPHSY,0.612 ± 0.054
5,RSPPLEPTLDPL,0.785 ± 0.1
6,RSPTRHAPPRPV,0.639 ± 0.095
7,RSRDDAGASLHL,0.6666 ± 0.0054
8,RSRKICYREEKR,0.644 ± 0.029
9,RSSDRGDVRATC,0.689 ± 0.062
10,RSSGHQIRDKSA,0.74 ± 0.022
11,RSSNNQRARPPQ,0.627 ± 0.028
12,RSSYTLLLPPLR,0.624 ± 0.0074
13,RSTGGHGSQAGR,0.711 ± 0.04
14,RSTRDKTRLAKD,0.743 ± 0.11
15,RSTRLPGFNRRE,0.662 ± 0.0062
16,RSTTDVADNSRP,0.631 ± 0.032
17,RSWVGVEWVGGM,0.595 ± 0.094
18,RTDTKPTGEHEA,0.694 ± 0.045
19,RTFKYERNLEVY,0.596 ± 0.046
20,RTFTLCSPSPCA,0.645 ± 0.059
21,RTPAPENPPTSP,0.609 ± 0.06
22,RTPYFGPLAQIA,0.622 ± 0.023
23,RTQGVWYHGVRR,0.745 ± 0.071

row,Sequence,protein stability index
1,RTQRGRMVGEQG,0.732 ± 0.11
2,RTQYEVGVGTGG,0.692 ± 0.021
3,RTRAPSKHAPER,0.841 ± 0.16
4,RTSLRYLKRVER,0.669 ± 0.076
5,RTSQLVSRATLD,0.691 ± 0.019
6,RTSRKKMLNFKY,0.66688 ± 0.00034
7,RTSYIKNQKKKG,0.699 ± 0.013
8,RTTKRNDYLSHI,0.699 ± 0.08
9,RVALVCGLGCIF,0.683 ± 0.029
10,RVEELKFKNLII,0.6633 ± 0.004
11,RVFLAVCYGCRV,0.5659 ± 0.0034
12,RVGLCGSSLGVI,0.742 ± 0.078
13,RVIPRTRISLLS,0.575 ± 0.0075
14,RVLASVGCYLFW,0.641 ± 0.015
15,RVLKIIGFITYA,0.56 ± 0.034
16,RVLLLTGAFELV,0.585 ± 0.028
17,RVLWGTESFIDL,0.7383 ± 0.0048
18,RVMGDAAGCGGV,0.707 ± 0.062
19,RVRRAGSGWCGK,0.729 ± 0.0073
20,RVSLELEIIPPS,0.706 ± 0.05
21,RVSLGHGRAFWP,0.711 ± 0.083
22,RVSPGGLCALSV,0.701 ± 0.051
23,RVSVGGSVRLFG,0.711 ± 0.04

row,Sequence,protein stability index
1,RVSWRLSYLCPV,0.694 ± 0.14
2,RVTLWDGSRSRI,0.711 ± 0.017
3,RVTNLQSRHTLH,0.692 ± 0.023
4,RVVEFGFGGCHW,0.758 ± 0.061
5,RVVEPKWDWRRG,0.68 ± 0.032
6,RVVGGWGEAWRE,0.744 ± 0.0091
7,RVVPTKTIAGSA,0.6502 ± 0.0014
8,RVVWVWLMSALF,0.54 ± 0.034
9,RVWERGRGGDGC,0.679 ± 0.017
10,RVWIWHPPTVRD,0.625 ± 0.016
11,RWATLSREFYQI,0.526 ± 0.023
12,RWFILCRSLPTG,0.613 ± 0.071
13,RWGGGGSVSFWW,0.712 ± 0.053
14,RWGGRTASVPCG,0.754 ± 0.015
15,RWGGSSPGRSFA,0.766 ± 0.0091
16,RWRFSARSRLSR,0.642 ± 0.013
17,RWSVSLAVTVLL,0.503 ± 0.011
18,RYAEVGSLVSFL,0.714 ± 0.0087
19,RYEQRKNRRQKL,0.799 ± 0.017
20,RYGDGIELVIGS,0.657 ± 0.011
21,RYHQNTKKTSDI,0.7119 ± 0.0016
22,RYLLCSSVESAV,0.639 ± 0.028
23,RYLLPYQRRLFL,0.745 ± 0.26

row,Sequence,protein stability index
1,RYNRVVCTEFHL,0.668 ± 0.01
2,RYRSQNNKKLEE,0.658 ± 0.024
3,SADILGLPRYLT,0.656 ± 0.023
4,SAFLPPLSPFSP,0.753 ± 0.037
5,SAFPSRVIGGGV,0.661 ± 0.01
6,SAGDLFVFEYLG,0.6759 ± 0.0024
7,SALRWPRPVLRV,0.619 ± 0.017
8,SAPCSFCPPPPG,0.667 ± 0.026
9,SAPLASRLCLFA,0.644 ± 0.0065
10,SAPSPPPPLAPP,0.679 ± 0.041
11,SAQSAGRQRLQK,0.695 ± 0.014
12,SARDQGISCAEC,0.674 ± 0.04
13,SASPEGTQRSPW,0.761 ± 0.14
14,SASPPLAERRGQ,0.655 ± 0.043
15,SASPVAGWLGGP,0.677 ± 0.044
16,SATRLGLGLCWV,0.6383 ± 0.0039
17,SAVRHPRPGRPG,0.6938 ± 0.0053
18,SCCTITVPERPR,0.653 ± 0.045
19,SCIAVRDPWGLV,0.683 ± 0.018
20,SCLFGIFRWWVG,0.568 ± 0.025
21,SCLFRVFMFHFS,0.553 ± 0.04
22,SCLMSFAFFASL,0.619 ± 0.016
23,SCLRCSCLTEVL,0.614 ± 0.021

row,Sequence,protein stability index
1,SCPHPAPPPPPP,0.677 ± 0.023
2,SCPPSFIPVLSP,0.667 ± 0.035
3,SCPSRLFLSFRG,0.683 ± 0.034
4,SCRGKTRPASGR,0.64 ± 0.027
5,SCSLPCPRLPSD,0.719 ± 0.15
6,SCSVGRRIGLGQ,0.688 ± 0.061
7,SCVFPSSCFVLI,0.607 ± 0.019
8,SCVGCLYMYWSL,0.6102 ± 0.0049
9,SCVLSYVASYAQ,0.66 ± 0.018
10,SCVSCACPVYWR,0.662 ± 0.065
11,SDKKGQKLKESQ,0.693 ± 0.044
12,SDKNNRFGRVRV,0.674 ± 0.072
13,SDLDFSRLHGSA,0.698 ± 0.056
14,SDMTHRSCTLLC,0.633 ± 0.028
15,SDVAGRCFFVVI,0.589 ± 0.033
16,SDVLSFYGGVEC,0.742 ± 0.026
17,SEALRGVQFLSC,0.684 ± 0.054
18,SECFARSSSPRA,0.7129 ± 0.0041
19,SEFDSVSRIVYY,0.705 ± 0.048
20,SEGSLIPGSHIA,0.733 ± 0.066
21,SERKAKAEVAEA,0.692 ± 0.064
22,SFARMTAIPGLR,0.661 ± 0.029
23,SFFCSKCPLLCP,0.533 ± 0.016

row,Sequence,protein stability index
1,SFFLALSIRLPN,0.609 ± 0.0042
2,SFFPPFHLLFSY,0.532 ± 0.025
3,SFFTLDRHPSYD,0.715 ± 0.023
4,SFGLGGSFFWVG,0.7 ± 0.035
5,SFGLSAGGDDRW,0.74 ± 0.016
6,SFGTLPLNSTAS,0.644 ± 0.029
7,SFGVDPDNCVGF,0.607 ± 0.061
8,SFNDVPPPEGIK,0.67 ± 0.038
9,SFPAPPSPPPLP,0.702 ± 0.081
10,SFRCLGFTSSRV,0.681 ± 0.05
11,SFRFCSNRFTRL,0.699 ± 0.056
12,SFRLLCPPPPLP,0.6805 ± 0.0046
13,SFRPPPPSSFPA,0.745 ± 0.019
14,SFSFLLSLSFLP,0.529 ± 0.017
15,SFSLAGFVCCVI,0.6002 ± 0.0045
16,SFSSHRSPPPPL,0.698 ± 0.13
17,SFSSPPPTLVPP,0.693 ± 0.038
18,SFTSSFPGSSPS,0.703 ± 0.058
19,SFVLFAGPVFFW,0.655 ± 0.025
20,SFVSRSRLAEVD,0.682 ± 0.073
21,SFYFSAFYPSIV,0.667 ± 0.013
22,SFYIMSIQRKAK,0.681 ± 0.052
23,SGASFLKVGLSV,0.6812 ± 0.0032

row,Sequence,protein stability index
1,SGASPSPPRTLS,0.7493 ± 0.0017
2,SGAVGSTNYGTR,0.743 ± 0.018
3,SGAVVIPCTFER,0.669 ± 0.025
4,SGGCGWGAGVRV,0.778 ± 0.02
5,SGGGSSSGKGIR,0.715 ± 0.091
6,SGGRCVGVGGVV,0.658 ± 0.028
7,SGGRPVQSWCAW,0.779 ± 0.29
8,SGGSGGSCMRYV,0.691 ± 0.025
9,SGLERGCSRCWH,0.687 ± 0.0088
10,SGLSFPPLYSLL,0.715 ± 0.092
11,SGLVCDGSSGGV,0.635 ± 0.0083
12,SGRPEGERAPEQ,0.728 ± 0.06
13,SGRVGRGAADWR,0.681 ± 0.029
14,SGRVMRAFSCGV,0.6228 ± 0.0036
15,SGSFAIYCSVSF,0.611 ± 0.045
16,SGSGCSDRRPSR,0.699 ± 0.02
17,SGSSIAVLPTPC,0.747 ± 0.11
18,SGTFACCLGVCL,0.6806 ± 0.0062
19,SGVILWSAWRDG,0.7029 ± 0.0014
20,SGVLSLVDVWTG,0.747 ± 0.1
21,SGVRAAGEGDSE,0.735 ± 0.033
22,SGVRGRGSFWSV,0.664 ± 0.04
